Source: publication PMC4484258, “Identification of BST-2/tetherin-induced hepatitis B virus restriction and hepatocyte-specific BST-2 inactivation” (Scientific Reports, 2015)

Molecular target: HBV enveloped particles (HBsAg) released from cells transfected with the pCMV ayw HBV proviral construct (hepatitis B virus (ayw), UniProt P03138-1 1-389; P03138-2 1-281; P03138-3 1-226)
Assay: cell-based or functional assay

HBV enveloped particles (HBsAg) released from cells transfected with the pCMV ayw HBV proviral construct, sequence (P03138 whole entry, chain 1 of 3): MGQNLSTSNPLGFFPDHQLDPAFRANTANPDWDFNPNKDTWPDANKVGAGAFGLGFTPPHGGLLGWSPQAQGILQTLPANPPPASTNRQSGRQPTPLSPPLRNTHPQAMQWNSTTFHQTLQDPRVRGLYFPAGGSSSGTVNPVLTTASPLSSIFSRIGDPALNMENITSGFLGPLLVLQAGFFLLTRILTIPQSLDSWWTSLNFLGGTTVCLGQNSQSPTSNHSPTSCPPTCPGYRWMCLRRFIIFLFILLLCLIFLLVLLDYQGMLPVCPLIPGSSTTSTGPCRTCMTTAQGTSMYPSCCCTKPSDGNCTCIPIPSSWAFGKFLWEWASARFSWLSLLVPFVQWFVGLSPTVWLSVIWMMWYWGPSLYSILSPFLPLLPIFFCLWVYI
HBV enveloped particles (HBsAg) released from cells transfected with the pCMV ayw HBV proviral construct, sequence (P03138 109-389, chain 2 of 3): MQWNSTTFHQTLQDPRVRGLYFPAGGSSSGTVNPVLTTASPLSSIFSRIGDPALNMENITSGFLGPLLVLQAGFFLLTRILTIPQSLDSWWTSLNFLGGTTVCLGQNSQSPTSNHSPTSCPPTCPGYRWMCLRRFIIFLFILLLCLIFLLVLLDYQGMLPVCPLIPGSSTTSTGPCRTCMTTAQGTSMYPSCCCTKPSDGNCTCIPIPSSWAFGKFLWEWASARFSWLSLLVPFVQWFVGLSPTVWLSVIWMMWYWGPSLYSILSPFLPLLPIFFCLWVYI
HBV enveloped particles (HBsAg) released from cells transfected with the pCMV ayw HBV proviral construct, sequence (P03138 164-389, chain 3 of 3): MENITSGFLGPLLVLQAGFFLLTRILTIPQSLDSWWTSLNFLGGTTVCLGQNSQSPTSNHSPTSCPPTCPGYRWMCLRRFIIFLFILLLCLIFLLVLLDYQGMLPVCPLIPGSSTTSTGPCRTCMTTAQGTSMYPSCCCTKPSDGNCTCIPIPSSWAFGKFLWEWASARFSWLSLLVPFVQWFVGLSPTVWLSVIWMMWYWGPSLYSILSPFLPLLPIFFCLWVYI

B1: BST-2 with an internal HA tag (BST-2 IHA), wild type (natural protein)
chain: MASTSYDYCRVPMEDGDKRCKLLLGIGILVLLIIVILGVPLIIFTIKANSEACRDGLRAVMECRNVTHLLQQELTEAQKGFQDVEAQAATCNHTVMALMASLDAEKAQGQKKVEELEGEITTLNHKLQDASAEVERLRRENQVLSVRIADKKYYPSSQDSS
BST-2-induced NF-κB signaling (pNF-κB-Luc reporter in 293T cells) in the presence of HBV expression: ~10 fold
